Measured values: patent publication US20080063635A1 (Kyowa Kirin, published 2008)

B1: 4D11-G[1/1/4/4] (antibody, V domains shown)
VH: QLQLQESGPGLLKPSETLSLTCTVSGGSISSPGYYGGWIRQPPGKGLEWIGSIYKSGSTYHNPSLKSRVTISVDTSKNQFSLKLSSVTAADTAVYYCTRPVVRYFGWFDPWGQGTLVTVSS
VL: AIQLTQSPSSLSASVGDRVTITCRASQGISSALAWYQQKPGKAPKLLIYDASNLESGVPSRFSGSGSGTDFTLTISSLQPEDFATYYCQQFNSYPTFGQGTKVEIK
notes: Chimeric heavy chain constant region: CH1 and hinge from human IgG1 (N5KG1), CH2 and CH3 from human IgG4 (N5KG4PE); also called IgG[1/1/4/4]; N5KG1144 with 4D11 variable regions
B2: 4D11-G[4/4/4/1] (antibody, V domains shown)
VH: B1 VH
VL: B1 VL
notes: Chimeric heavy chain constant region: CH1, hinge and CH2 from human IgG4 (N5KG4PE, with S228P and L235E), CH3 from human IgG1; also called IgG[4/4/4/1]; N5KG4441 with 4D11 variable regions
B3: 4D11-G[4/4/1/4] (antibody, V domains shown)
VH: B1 VH
VL: B1 VL
notes: Chimeric heavy chain constant region: CH1 and hinge from human IgG4 (N5KG4PE, with S228P and L235E), CH2 from human IgG1, CH3 from human IgG4; also called IgG[4/4/1/4]; N5KG4414 with 4D11 variable regions
B4: 4D11-G[4/4/1/1] (antibody, V domains shown)
VH: B1 VH
VL: B1 VL
notes: Chimeric heavy chain constant region: CH1 and hinge from human IgG4 (N5KG4PE, with S228P and L235E), CH2 and CH3 from human IgG1 (N5KG1); also called IgG[4/4/1/1]; N5KG4411 with 4D11 variable regions

Target: T1, CD40 (UniProt P25942 21-277, limits assumed)
T1 construct: whole, on cells; also called CD40 on Ramos cells
T1 sequence (P25942 21-277 limits assumed): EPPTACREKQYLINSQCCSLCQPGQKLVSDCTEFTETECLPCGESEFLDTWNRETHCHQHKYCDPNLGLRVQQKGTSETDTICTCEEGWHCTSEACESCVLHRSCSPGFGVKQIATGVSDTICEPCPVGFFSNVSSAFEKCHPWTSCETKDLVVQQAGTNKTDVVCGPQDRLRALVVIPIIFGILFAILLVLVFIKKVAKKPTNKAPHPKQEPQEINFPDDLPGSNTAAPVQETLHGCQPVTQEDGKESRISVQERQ
Assay: flow cytometry on Ramos cells, R-PE anti-human antibody
Protocol: A Ramos cell line was suspended in a PBS staining buffer (SB) containing 0.1% NaN₃ and 2% FCS at a concentration of 2×10⁶/ml. The cell suspension (100 μl/well) was dispensed into wells of a 96-well round-bottom plate (manufactured by Becton, Dickinson and Company). Each hybridoma culture supernatant (50 μl) was added thereto, followed by incubation at a temperature below freezing for 30 minutes. A human IgG1 antibody to human serum albumin as a negative control was adjusted to a concentration of 2 μg/ml in a hybridoma culture medium. The medium (50 μl) was added to the plate, followed by incubation at a temperature below freezing for 15 minutes. After washing the plate with SB, 50 μl of a 250-fold diluted R-PE fluorescently labeled anti-human antibody (Southern Biotechnology Associates, Inc.) was added to the plate, followed by incubation at a temperature below freezing for 15 minutes. After washing with SB twice, the plate was suspended in 300 to 500 μl of a FACS buffer, and the fluorescence intensity of each cell was measured using FACS (FACSort, FACScan, manufactured by Becton, Dickinson and Company).

binding result | Binder
binds | B1
binds | B2
binds | B3
binds | B4
